Reference: patent publication US20040258656, “High affinity TGFbeta nucleic acid ligands and inhibitors” (published 2004)

Tests used:
[1] = target: T1, TGFβ2 (transforming growth factor beta 2) (Homo sapiens, UniProt P61812 SEQ:1-112); assay: filter; settings: chain copies: 2 (inferred, homodimer)
T1 sequence: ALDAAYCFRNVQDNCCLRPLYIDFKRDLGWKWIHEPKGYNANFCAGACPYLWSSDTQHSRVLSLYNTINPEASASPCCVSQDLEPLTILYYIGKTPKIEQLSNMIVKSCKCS

[2] = target: T1, TGFβ2 (transforming growth factor beta …); assay: filter; settings: chain copies: 2 (inferred, homodimer); remark: listed apart in the source
[3] = target: T2, TGFβ1 (transforming growth factor beta 1) (Homo sapiens, UniProt P01137 SEQ:1-112); assay: bioactivity +++; settings: chain copies: 2 (inferred, homodimer)
[4] = target: T1, TGFβ2 (transforming growth factor beta …); assay: filter; settings: chain copies: 2 (inferred, homodimer); remark: listed apart in the source
[5] = target: T1, TGFβ2 (transforming growth factor beta …); assay: filter; settings: chain copies: 2 (inferred, homodimer); remark: listed apart in the source
[6] = target: T2, TGFβ1 (transforming growth factor beta …); assay: CD70 parent +++; settings: chain copies: 2 (homodimer, inferred)
[7] = target: T1, TGFβ2 (transforming growth factor beta …); assay: filter; settings: chain copies: 2 (homodimer, stated)

T2 sequence (P01137 279-390): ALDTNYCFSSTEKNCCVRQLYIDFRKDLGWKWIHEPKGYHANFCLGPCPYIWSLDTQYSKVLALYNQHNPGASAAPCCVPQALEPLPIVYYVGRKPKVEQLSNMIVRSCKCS

B1: NX22427 (ssRNA)
RNA: GGGGUUAUUACAGAGUCUGUAUAGCUGUACCC
modifications: 2'-F C and U; 2'-OMe at lowercase a,g of gg-ggUUAUUaCagagUCUGUAUAgCUgUaC-CC; 3'-3' dT
binding signal [1]: 0.3 x Kd of NX22284

B2: NX22385 (ssRNA)
RNA: UGUGAAUAUUAGAGAGUCUGUAUAGCUCUACCCC
modifications: 2'-F C and U; 3'-3' dT
binding signal [2]: 0.4 x Kd of NX22284

B3: NX22424 (ssRNA)
RNA: B2 RNA
modifications: 2'-F C and U; 2'-OMe at lowercase a,g of UgUgAAUAUUaGagagUCUGUAUAgCUCUaCCCC; 3'-3' dT
binding signal [2]: 0.6 x Kd of NX22284

B4: NX22425 (ssRNA)
RNA: B2 RNA
modifications: 2'-F C and U; 2'-OMe at lowercase a,g of UgUgaaUAUUagagagUCUGUAUAgCUCUaCCCC; 3'-3' dT
binding signal [2]: 1.5 x Kd of NX22284

B5: CD70 (ChD70) (ssRNA)
RNA: GGGUGCCUUUUGCCUAGGUUGUGAUUUGUAACCUUCUGCCCA
modifications: 2'-F pyrimidines (library chemistry)
binding result [3]: binds

B6: ChD70-m17 (ssRNA)
RNA: B5 RNA
modifications: 2'-OMe purines at 1-3, 16-18, 21, 23-24, 28, 30-31 and 42; 3'-3' U
binding result [3]: binds

B7: 14i-1Δ5',3' (ssRNA)
RNA: GGAAGUAACGUUGUAGUAAAAUUCGUUCUCUCGGCAUUUGGCCA
modifications: 2'-F C and U
binding signal [4]: > 100 x Kd of 14i-1

B8: 14i-1t5-41 (ssRNA)
RNA: GGGAGGAUGCGGAAGUAACGUUGUAGUAAAAUUCCUUC
modifications: 2'-F C and U
binding signal [4]: 1 x Kd of 14i-1

B9: 14i-1t5-38 (ssRNA)
RNA: GGGAGGAUGCGGAAGUAACGUUGUAGUAAAAUUCC
modifications: 2'-F C and U
binding signal [4]: > 100 x Kd of 14i-1

B10: 14i-1t5-35 (ssRNA)
RNA: GGGAGGAUGCGGAAGUAACGUUGUAGUAAAAU
modifications: 2'-F C and U
binding signal [4]: > 100 x Kd of 14i-1

B11: 14i-1(ML-86) (ssRNA)
RNA: GGGAGGAUGCGGAAGUAACGUUGUAGUUCCUUC
modifications: 2'-F C and U
binding signal [4]: > 100 x Kd of 14i-1

B12: 14i-1(ML-87) (ssRNA)
RNA: GGGAGGAUGCGGAAGUAACGUUGUAGU
modifications: 2'-F C and U
binding signal [4]: > 100 x Kd of 14i-1

B13: 14i-1(ML-89) (ssRNA)
RNA: GGGAGGAGUAACGUUGUAGU
modifications: 2'-F C and U
binding signal [4]: > 100 x Kd of 14i-1

B14: 21a-4Δ5',3' (ssRNA)
RNA: GGCGUUGUUUAGUCGUAUGUAUAUACUAAGUCCGCUUGUCCCCA
modifications: 2'-F C and U
binding signal [5]: > 100 x Kd of 21a-4

B15: 21a-4(ML-91) (ssRNA)
RNA: GGGGAGCGGCGUUGUUUAGUCGUAUGUAUAUACUAAGUCCGCUU
modifications: 2'-F C and U
binding signal [5]: 1 x Kd of 21a-4

B16: 21a-4(ML-92) (ssRNA)
RNA: GGGGAGCGGCGUUGUUGAAAAGUCCGCUU
modifications: 2'-F C and U
binding signal [5]: > 100 x Kd of 21a-4

B17: 21a-4(ML-108) (ssRNA)
RNA: GGGGAGCGGCGUUGUUUCGUAUGUAUAUAAGUCCGCUU
modifications: 2'-F C and U
binding signal [5]: > 100 x Kd of 21a-4

B18: 21a-4(ML-109) (ssRNA)
RNA: GGGGAGCGGCGUUGUUUAUGUAUAAGUCCGCUU
modifications: 2'-F C and U
binding signal [5]: > 100 x Kd of 21a-4

B19: 21a-4(ML-110) (ssRNA)
RNA: GGGGAGCGGCGUUGUUUAGUCGUAUGUAUAUACUAAGUCCGC
modifications: 2'-F C and U
binding signal [5]: 1 x Kd of 21a-4

B20: 21a-4(ML-111) (ssRNA)
RNA: GGGGAGCGGCGUUGUUUAGUCGUAUGUAUAUACUAAGU
modifications: 2'-F C and U
binding signal [5]: 30 x Kd of 21a-4

B21: NX22356 (ssRNA)
RNA: GGAGGUUAUUACAGAGUCUGUAUAGCUGUACUCC
modifications: 2'-F C and U; 2'-OMe at lowercase a,g of ggagGUUAUUACAGAGUCUGUAUAGCuGUACUCC; 3'-3' dT
binding signal [1]: 1 x Kd of NX22284

B22: NX22357 (ssRNA)
RNA: B21 RNA
modifications: 2'-F C and U; 2'-OMe at lowercase a,g of GGAGgUUaUUaCAGAGUCUGUAUAGCUGUACUCC; 3'-3' dT
binding signal [1]: 2 x Kd of NX22284

B23: NX22358 (ssRNA)
RNA: B21 RNA
modifications: 2'-F C and U; 2'-OMe at lowercase a,g of GGAGGUUAUUACagagUCUGUAUAGCUGUACUCC; 3'-3' dT
binding signal [1]: 1 x Kd of NX22284

B24: NX22360 (ssRNA)
RNA: B21 RNA
modifications: 2'-F C and U; 2'-OMe at lowercase a,g of GGAGGUUAUUACAGAGUCUGUAUAgCUgUaCUCC; 3'-3' dT
binding signal [1]: 1 x Kd of NX22284

B25: NX22377 (ssRNA)
RNA: B21 RNA
modifications: 2'-F C and U; 2'-OMe at lowercase a,g of ggaggUUaUUaCAGAGUCUGUAUAgCUgUaCucc; 3'-3' dT
binding signal [1]: 1 x Kd of NX22284

B26: NX22417 (ssRNA)
RNA: B21 RNA
modifications: 2'-F C and U; 2'-OMe at all purines except G20, A22, A24; 3'-3' dT
binding signal [1]: 1 x Kd of NX22284

B27: NX22420 (ssRNA)
RNA: B21 RNA
modifications: 2'-F C and U; 2'-OMe at all purines except A8, G20, A22, A24; 3'-3' dT
binding signal [1]: 1 x Kd of NX22284

B28: NX22421 (ssRNA)
RNA: B21 RNA
modifications: 2'-F C and U; 2'-OMe at all purines except G5, A8, A11, G20, A22, A24; 3'-3' dT
binding signal [1]: 2 x Kd of NX22284

B29: NX22426 (ssRNA)
RNA: GGAGAUAUUACAGAGUCUGUAUAGCUGUACUCC
modifications: 2'-F C and U; 2'-OMe at lowercase a,g of ggaga-UAUUaCagagUCUgUAUAgCUgUaCucc with G of CUGUAUA 2'-OH; 3'-3' dT
binding signal [1]: 1 x Kd of NX22284

B30: ChD70-m3 (ssRNA)
RNA: B5 RNA
modifications: 2'-OMe at 21, 23-24, 28
binding result [6]: binds

B31: ChD70-m5 (ssRNA)
RNA: B5 RNA
modifications: 2'-OMe at 1, 21, 23-24, 28
binding result [6]: binds

B32: ChD70-m6 (ssRNA)
RNA: B5 RNA
modifications: 2'-OMe at 2, 21, 23-24, 28
binding result [6]: binds

B33: ChD70-m7 (ssRNA)
RNA: B5 RNA
modifications: 2'-OMe at 3, 21, 23-24, 28
binding result [6]: binds

B34: ChD70-m10 (ssRNA)
RNA: B5 RNA
modifications: 2'-OMe at 16, 21, 23-24, 28
binding result [6]: binds

B35: ChD70-m11 (ssRNA)
RNA: B5 RNA
modifications: 2'-OMe at 17, 21, 23-24, 28
binding result [6]: binds

B36: ChD70-m12 (ssRNA)
RNA: B5 RNA
modifications: 2'-OMe at 18, 21, 23-24, 28
binding result [6]: binds

B37: ChD70-m14 (ssRNA)
RNA: B5 RNA
modifications: 2'-OMe at 21, 23-24, 28, 31
binding result [6]: binds

B38: ChD70-m15 (ssRNA)
RNA: B5 RNA
modifications: 2'-OMe at 21, 23-24, 28, 38
binding result [6]: binds

B39: ChD70-m16 (ssRNA)
RNA: B5 RNA
modifications: 2'-OMe at 21, 23-24, 28, 42
binding result [6]: binds

B40: ChD70-m18 (ssRNA)
RNA: B5 RNA
modifications: 2'-OMe at 1-3, 16-18, 21, 23-24, 28, 30, 42; 3'-3' U cap
binding result [6]: binds

B41: 8.5 (ssRNA)
RNA: GGGAGGACGAUGCGGUCCUAACCAUCACAAUCUCAAUUCUUAUAUUUUCCCGCCCCAGACGACUCGCCCGA
modifications: 2'-F C and U; 2'-OH A and G
binding result [7]: no binding

B42: 8.6 (ssRNA)
RNA: GGGAGGACGAUGCGGAAACCAAAAGACCACAUCUCCAUACUCACGCUCUGCCCCAGACGACUCGCCCGA
modifications: 2'-F C and U; 2'-OH A and G
binding result [7]: no binding

B43: 8.8 (ssRNA)
RNA: GGGAGGACGAUGCGGAUAGAUCGGUCCGAUAAGUCUUUCAUCUUUACCUGGCCCCCAGACGACUCGCCCGA
modifications: 2'-F C and U; 2'-OH A and G
binding result [7]: no binding

B44: 8.12 (ssRNA)
RNA: GGGAGGACGAUGCGGUCCAUCAACAAUCUUAUCAUUAUGUUUUUCCUUCCCGCCCCAGACGACUCGCCCGA
modifications: 2'-F C and U; 2'-OH A and G
binding result [7]: no binding

B45: 8.18 (ssRNA)
RNA: GGGAGGACGAUGCGGUCUACCCUUUAGCAGUAUUUGUUUCCAUCGUUGUUUGCCCCAGACGACUCGCCCGG
modifications: 2'-F C and U; 2'-OH A and G
binding result [7]: no binding

B46: 8.20 (ssRNA)
RNA: GGGAGGACGAUGCGGUCUCAACGAAGAACAUCGUUGGAUACUGUUUGUCCCGCCCCAGACGACUCGCCCGA
modifications: 2'-F C and U; 2'-OH A and G
binding result [7]: no binding
